Assay results published in patent publication US20180162944A1 (WUXI BIOLOGICS SHANGHAI, published 2018).
Changes are numbered by the printed parent chain.

T1: PD-L2 expressed on transfected CHO cells (Homo sapiens (Human), UniProt Q9BQ51 20-273)
T1 sequence: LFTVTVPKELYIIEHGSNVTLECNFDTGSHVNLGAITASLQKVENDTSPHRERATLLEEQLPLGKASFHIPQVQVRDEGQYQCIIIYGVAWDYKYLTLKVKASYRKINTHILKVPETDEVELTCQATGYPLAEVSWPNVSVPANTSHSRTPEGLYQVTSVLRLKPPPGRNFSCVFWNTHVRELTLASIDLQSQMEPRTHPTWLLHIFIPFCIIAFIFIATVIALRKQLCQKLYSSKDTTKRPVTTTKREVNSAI

B1: 2.74.15.hAb8 (antibody, V domains shown)
VH: QVQLQESGPGLVKPSETLSLTCTVSGYSITSGYIWHWIRQPPGKGLEWIGYIHYSGTTDFNPSLESRVTISVDTSKNQFSLKLSSVTAADTAVYYCAREGRSYGGFAYWGQGTLVTVSS
VL: DIQMTQSPSSLSASVGDRVTITCKASQSVSNGVAWYQQKPGKVPKLLIYYASNRFTGVPSRFSGSGSGTDFTLTISSLQPEDVATYYCQQDYSSPFTFGQGTKLEIK
notes: Humanized antibody with a human constant region of IgG4 isotype
B2: 2.74.15.hAb7 (antibody, V domains shown)
VH: B1 VH
VL: B1 VL with M4L, S10F, V43A, D70E, V83F
notes: as for B1
B3: 2.74.15.hAb5 (antibody, V domains shown)
VH: B1 VH with S25T, P42A
VL: B1 VL with M4L, S10F, V43A, D70E, V83F
notes: as for B1
B4: 2.74.15.hAb4 (antibody, V domains shown)
VH: B1 VH with S119A
VL: B1 VL with D1S, I2F, Q3V, Q100S, K103E
notes: as for B1
B5: 2.74.15.hAb6 (antibody, V domains shown)
VH: B1 VH with S25T, P42A
VL: B1 VL
notes: as for B1

target: T2, human PD-L1 expressed on cells (CHO / CHO-K1 cells transfected with full-length human PD-L1); native PD-L1 on … (human, UniProt Q9NZQ7 19-290); experiment: FACS competition on human PD-L1 expressing CHO cells; blocked ligand: mouse Fc-tagged human PD-1; bottom panel
T2 construct: whole, on cells; also called PD-L1 expressing CHO cell; PD-L1 transfected CHO cells
T2 sequence (Q9NZQ7 19-290): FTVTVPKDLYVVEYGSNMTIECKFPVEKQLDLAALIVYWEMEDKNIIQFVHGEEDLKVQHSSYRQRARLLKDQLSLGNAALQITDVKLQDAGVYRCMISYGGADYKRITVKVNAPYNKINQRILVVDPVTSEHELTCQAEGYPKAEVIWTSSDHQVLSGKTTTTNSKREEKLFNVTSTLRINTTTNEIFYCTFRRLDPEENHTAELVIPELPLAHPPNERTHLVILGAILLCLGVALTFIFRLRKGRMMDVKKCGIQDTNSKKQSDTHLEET

Binder | IC50
B1 | 0.196 nM
B2 | 0.199 nM

target: T2, human PD-L1 expressed on cells (CHO / …); experiment: FACS, native PD-L1 on human monocyte-derived dendritic cells, MFI against antibody concentration

Binder | EC50
B1 | 2.52 nM
B2 | 2.53 nM
B3 | 2 nM
B4 | 1.82 nM
B5 | 2.39 nM

target: T3, murine PD-L1 (mouse, UniProt Q9EP73 19-239, limits assumed); experiment: ELISA, antigen coated on plate
T3 construct: also called mouse PD-L1
Protocol: (§1) 3.7. Cross-species binding assay: the cross-reactivity of the Ab to cynomolgus and murine PD-L1 was measured by ELISA. Human, cyno and mouse PD-L1 were coated on ELISA plates, respectively. After blocking, the humanized antibodies were added into the plate and incubated at room temperature for at least 2 hours. The binding of the antibodies to the coated antigens was detected by using goat anti-human IgG Fc-HRP. The color reaction was developed using TMB substrate and stopped by 2M HCl. The ELISA plates were analyzed at 450 nm using a Molecular Device M5e microplate reader.

T3 sequence (Q9EP73 19-239 limits assumed): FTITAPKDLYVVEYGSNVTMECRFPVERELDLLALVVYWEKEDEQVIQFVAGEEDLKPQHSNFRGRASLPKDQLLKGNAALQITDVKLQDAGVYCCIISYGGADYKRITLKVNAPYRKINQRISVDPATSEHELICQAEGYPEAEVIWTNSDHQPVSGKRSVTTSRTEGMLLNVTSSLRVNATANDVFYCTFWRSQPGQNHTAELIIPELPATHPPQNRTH

Binder | binding result
B4 | no binding

target: T2, human PD-L1 expressed on cells (CHO / …); experiment: FACS competition on human PD-L1 expressing CHO cells; blocked ligand: mouse Fc-tagged human PD-1; top panel

Binder | IC50
B4 | 0.622 nM

target: T4, cynomolgus monkey PD-L1 (cynomolgus monkey, UniProt G7PSE7 19-238); experiment: ELISA, cynomolgus PD-L1 coated on the plate, OD450 against antibody concentration; lower panel
T4 construct: also called cyno PD-L1
Protocol: as §1

T4 sequence (G7PSE7 entry or part of it limits assumed): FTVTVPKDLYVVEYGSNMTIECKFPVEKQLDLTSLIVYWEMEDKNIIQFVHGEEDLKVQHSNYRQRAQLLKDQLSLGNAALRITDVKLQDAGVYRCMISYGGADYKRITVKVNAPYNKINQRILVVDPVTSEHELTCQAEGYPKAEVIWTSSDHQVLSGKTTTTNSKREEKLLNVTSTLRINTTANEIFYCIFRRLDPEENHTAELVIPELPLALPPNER

Binder | EC50
B1 | 0.0524 nM
B2 | 0.000721 nM

target: T3, murine PD-L1; experiment: ELISA or FACS

Binder | binding result
B1 | no binding
B2 | no binding
B3 | no binding
B5 | no binding

target: T2, human PD-L1 expressed on cells (CHO / …); experiment: FACS competition on human PD-L1 expressing CHO cells; blocked ligand: mouse Fc-tagged human PD-1; middle panel

Binder | IC50
B3 | 0.15 nM
B5 | 0.157 nM

target: T4, cynomolgus monkey PD-L1; experiment: ELISA, cynomolgus PD-L1 coated on the plate, OD450 against antibody concentration; upper panel
Protocol: as §1

Binder | EC50
B3 | 0.026 nM
B4 | 0.00577 nM
B5 | 0.0238 nM

target: T1, PD-L2 expressed on transfected CHO cells; experiment: FACS, PD-L2 transfected CHO-K1 cells, single staining, concentration not shown
Protocol: 3.8. Cross-family binding assay by FACS: to examine the cross-family binding activity of the humanized antibodies, cells lines that express PD-L2 were stained with the humanized antibodies, followed by 2nd antibody staining with FITC conjugated goat anti-human IgG Fc. PD-L1 expressing cells were used as positive control. Corresponding parental cell lines were used as negative controls. The stained cells were analyzed by using a BD Biosciences FACSCanto II and FlowJo Version software.
CHO cells transfected with PD-L1 or PD-L2 were stained with humanized PD-L1 antibodies and analysis by FACS.

Binder | binding result
B1 | no binding
B2 | no binding
B3 | no binding
B4 | no binding
B5 | no binding

target: T2, human PD-L1 expressed on cells (CHO / …); experiment: FACS, CHO cells transfected with full-length human PD-L1, MFI against antibody concentration

Binder | EC50
B1 | 1.17 nM
B2 | 1.18 nM
B3 | 1.11 nM
B4 | 1.53 nM
B5 | 1.08 nM

target: T5, recombinant human PD-L1 (human, UniProt Q9NZQ7 19-238); experiment: SPR (ProteOn XPR36), antibody captured on Protein A, human PD-L1 as analyte, 1:1 Langmuir fit
T5 construct: the whole natural entry is named
Protocol: 3.2. […] Protein A protein (Sigma) was immobilized to a GLM sensor chip (Bio-Rad) through amine coupling. Purified antibodies were flowed over the sensor chip and captured by the Protein A. The chip was rotated 90° and washed with running buffer (1×PBS/0.01% Tween20, Bio-Rad) until the baseline is stable. Five concentrations of human PD-L1 and running buffer were flowed against the antibody flow cell at a flow rate 100 μL/min for an association phase of 240s, followed by 600s dissociation. The chip was regenerated with pH 1.7 H₃PO₄ after each run. The association and dissociation curve was fit to a 1:1 Langmuir binding model using ProteOn software.

T5 sequence (Q9NZQ7 19-238 limits assumed): as the sequence (G7PSE7 entry or part of it limits assumed) above, with T33A, S34A, N62S, Q68R, R82Q, L173F, A185T, I192T, L215H counted along it

Binder | Kd | koff | kon
B1 | 0.0676 nM | 5.48e-05 s⁻¹ | 811000 M⁻¹ s⁻¹
B2 | 0.155 nM | 0.000146 s⁻¹ | 938000 M⁻¹ s⁻¹
B3 | 0.106 nM | 0.000135 s⁻¹ | 1.27e+06 M⁻¹ s⁻¹
B4 | 0.0389 nM | 2.83e-05 s⁻¹ | 728000 M⁻¹ s⁻¹
B5 | 0.149 nM | 0.000172 s⁻¹ | 1.16e+06 M⁻¹ s⁻¹
